Results on 1 variant are retold here after IntAct's records for PubMed 19804755.

B1: DNA repair and telomere maintenance protein nbs1 (Schizosaccharomyces pombe (strain ATCC 38366 / 972)), O43070 (parent)
chain: MWIIEAEGDILKGKSRILFPGTYIVGRNVSDDSSHIQVISKSISKRHARFTILTPSEKDYFTGGPCEFEVKDLDTKFGTKVNEKVVGQNGDSYKEKDLKIQLGKCPFTINAYWRSMCIQFDNPEMLSQWASNLNLLGIPTGLRDSDATTHFVMNRQAGSSITVGTMYAFLKKTVIIDDSYLQYLSTVKESVIEDASLMPDALECFKNIIKNNDQFPSSPEDCINSLEGFSCAMLNTSSESHHLLELLGLRISTFMSLGDIDKELISKTDFVVLNNAVYDSEKISFPEGIFCLTIEQLWKIIIERNSRELISKEIERLKYATASNSTPQKIIQPQRHIQKNIVDDLFSVKKPLPCSPKSKRVKTLENLSIMDFVQPKQMFGKEPEGYLSNQSNNGSAQNKKSGDNSEKTKNSLKSSSKKSANTGSGQGKTKVEYVSYNSVDKGNSSPFKPLELNVVGEKKANAEVDSLPSENVQESEDDKAFEENRRLRNLGSVEYIRIMSSEKSNANSRHTSKYYSGRKNFKKFQKKASQKAPLQAFLSLSEHKKTEVFDQDDTDLEPVPRLMSKVESIPAGASSDKSGKSSISKKSSNSFKELSPKTNNDEDDEFNDLKFHF
partner: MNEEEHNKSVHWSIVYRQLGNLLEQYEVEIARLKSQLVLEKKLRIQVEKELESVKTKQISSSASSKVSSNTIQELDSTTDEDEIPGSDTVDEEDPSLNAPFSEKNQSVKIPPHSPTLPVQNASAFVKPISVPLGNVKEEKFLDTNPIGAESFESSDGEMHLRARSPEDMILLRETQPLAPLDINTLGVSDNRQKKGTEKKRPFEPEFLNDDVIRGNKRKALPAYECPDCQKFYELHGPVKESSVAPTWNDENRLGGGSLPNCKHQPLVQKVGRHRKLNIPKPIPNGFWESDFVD

Variants of B1 are the subject of the experiment. Particulars: with com1_schpo ctp1, O74986.
On to R27A;K45A, for which the “effect of a mutation on the interaction” value was “decreasing interaction”.
